The record followed here is patent US20060140889A1.

The target of the assay is bovine serum albumin (bovine) (UniProt P02769). Nature of the assay: gel-shift, 0.1 mg/ml conjugate with 10 mg/ml BSA, 7.5% native PAA gel, in situ peroxidase activity; Rf of the conjugate alone 0.31.
bovine serum albumin (bovine), sequence (P02769 25-607 limits assumed): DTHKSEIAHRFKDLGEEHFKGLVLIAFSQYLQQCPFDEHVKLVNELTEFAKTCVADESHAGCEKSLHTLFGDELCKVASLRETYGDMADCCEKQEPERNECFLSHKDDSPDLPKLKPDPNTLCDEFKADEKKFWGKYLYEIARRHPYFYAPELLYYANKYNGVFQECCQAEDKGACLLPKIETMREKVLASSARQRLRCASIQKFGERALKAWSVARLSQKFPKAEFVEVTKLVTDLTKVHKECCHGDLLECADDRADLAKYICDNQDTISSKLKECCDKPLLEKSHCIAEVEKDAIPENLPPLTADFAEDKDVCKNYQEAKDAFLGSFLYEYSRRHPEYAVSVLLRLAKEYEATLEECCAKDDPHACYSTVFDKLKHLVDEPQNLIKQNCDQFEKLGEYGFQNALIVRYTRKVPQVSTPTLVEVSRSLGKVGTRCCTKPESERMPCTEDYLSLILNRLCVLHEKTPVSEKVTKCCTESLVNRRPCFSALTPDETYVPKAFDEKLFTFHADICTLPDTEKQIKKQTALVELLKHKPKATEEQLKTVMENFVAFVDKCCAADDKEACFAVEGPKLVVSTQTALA

B1: iMab142-xx-0002-HRP conjugate (protein, not shown: small tags and cut ends)
chain: MNVKLVEKGGNFVENDDDLKLTCRAEGYTIGPYSMGWFRQAPNDDSTNVSCINMGGGITYYGDSVKERFDIRRDNASNTVTLSMDDLQPEDSAVYNCAADWWDGFTYGSTWYNPSSYDYRGQGTDVTVSS
modifications: Amines (N-terminus and Lys) were thiolated with SATA, deacetylated, and coupled by thioether to maleimide-activated horseradish peroxidase. The sites and the iMab:HRP ratio of the product are not stated.
In the case of B1, the retardation factor (Rf) turned out to be 0.31.
